Test results as given in the supplement of paper PMC7125110.
± gives the standard error. For some assays here: This sample holds only a part of the variants without activity.

B1: glmS ribozyme (parent)
chain: AUAAAAGCGCCAGAACUACAGAAAUGUAGUUGACGAGGAGGAGGUUUAUCGAAUUUUCGGCGGAUGCCUCCAAA

Experiments:
Conditions in all cases: with glucosamine-6-phosphate
glucosamine-6-phosphate [1] = variants of: B1; assay: kcat; higher = faster cleavage; RNA array
Method in brief: (§1)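 On sequenced MiSeq chips, barcoded ribozyme variants were made in situ by E. coli RNA polymerase and followed at 37 °C through a hybridised Cy3 probe. Glucosamine-6-phosphate was flowed in at 40 μM to 10 mM in HEPES/KCl/Mg(OAc)2 buffer. Exponential fits to normalised per-tile medians gave kobs, and weighted Michaelis–Menten fits gave kcat and KM.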

glucosamine-6-phosphate [2] = variants of: B1; assay: KM; higher = weaker cofactor use; RNA array
Method in brief: as §1

glucosamine-6-phosphate [3] = variants of: B1; assay: self-cleavage kobs at 2500 uM GlcN6P; higher = faster cleavage; RNA array
Method in brief: as §1

glucosamine-6-phosphate [4] = variants of: B1; assay: self-cleavage kobs at 10000 uM GlcN6P; higher = faster cleavage; RNA array
Method in brief: as §1

glucosamine-6-phosphate [5] = variants of: B1; assay: self-cleavage kobs at 40 uM GlcN6P; higher = faster cleavage; RNA array
Method in brief: as §1

glucosamine-6-phosphate [6] = variants of: B1; assay: self-cleavage kobs at 160 uM GlcN6P; higher = faster cleavage; RNA array
Method in brief: as §1

glucosamine-6-phosphate [7] = variants of: B1; assay: self-cleavage kobs at 640 uM GlcN6P; higher = faster cleavage; RNA array
Method in brief: as §1

Row | Variant | kcat (glucosamine-6-phosphate [1]) [s⁻¹] | KM (glucosamine-6-phosphate [2]) [µM] | self-cleavage kobs at 2500 uM GlcN6P (glucosamine-6-phosphate [3]) [s⁻¹] | self-cleavage kobs at 10000 uM GlcN6P (glucosamine-6-phosphate [4]) [s⁻¹] | self-cleavage kobs at 40 uM GlcN6P (glucosamine-6-phosphate [5]) [s⁻¹] | self-cleavage kobs at 160 uM GlcN6P (glucosamine-6-phosphate [6]) [s⁻¹] | self-cleavage kobs at 640 uM GlcN6P (glucosamine-6-phosphate [7]) [s⁻¹]
1 | A42G A64U | 0.000207 ± 1.6e-05 | 2880 ± 600 | 0.000104 ± 2.3e-05 | 0.000158 ± 2.2e-05 | – | – | –
2 | G40A C68U | 5.12e-05 ± 6.5e-06 | – | 4.58e-05 ± 1e-05 | 4.59e-05 ± 5.4e-06 | < 1e-05 | – | –
3 | A14C A15G | 0.00631 ± 0.0025 | 6250 ± 2900 | 0.00192 ± 0.00022 | 0.00369 ± 0.00064 | 5.61e-05 ± 7.9e-06 | 0.000127 ± 1.8e-05 | 0.000597 ± 6.6e-05
4 | A14C A15C | 0.00204 ± 0.00038 | 2740 ± 760 | 0.0011 ± 0.00014 | 0.00157 ± 0.00017 | 4.27e-05 ± 6.9e-06 | 0.000103 ± 1.6e-05 | 0.000339 ± 4.6e-05
5 | G59U A64G | 6.46e-05 ± 1.1e-05 | – | 7.94e-05 ± 2.1e-05 | 5.92e-05 ± 9.3e-06 | < 1e-05 | – | –
6 | U31C A64U | < 1e-05 | – | – | – | – | – | –
7 | A36C C71G | 1.27e-05 ± 2.5e-06 | – | – | – | – | – | –
8 | U31A A39G | 0.0529 ± 0.014 | 4340 ± 1300 | 0.0245 ± 0.0078 | 0.0363 ± 0.0095 | 0.000491 ± 7.7e-05 | 0.00202 ± 0.00038 | 0.00495 ± 0.0018
9 | C58A G60C C67G | 1.21e-05 ± 3.8e-06 | – | – | – | – | – | –
10 | A53U A64G | 0.0234 ± 0.0024 | 1970 ± 260 | 0.0138 ± 0.0041 | 0.0195 ± 0.0038 | 0.000491 ± 6.1e-05 | 0.00148 ± 0.00041 | 0.00551 ± 0.0013
11 | U49A C68G | 2.5e-05 ± 5.3e-06 | – | – | – | – | – | –
12 | A48G C67G | 5.64e-05 ± 1.8e-05 | – | 7.99e-05 ± 1.9e-05 | 4.41e-05 ± 1.4e-05 | – | < 1e-05 | 3.36e-05 ± 1.6e-05
13 | C11U U65G C68U | 6.35e-05 ± 2.3e-05 | – | 0.000106 ± 3.6e-05 | 5.53e-05 ± 1.2e-05 | – | – | –
14 | U30A U55C G66C | 8.18e-05 ± 2.7e-05 | – | 0.000101 ± 2e-05 | 6.89e-05 ± 1.1e-05 | – | – | –
15 | A53U G63C | < 1e-05 | – | – | – | – | – | –
16 | G29U C58A | 0.000289 ± 9.9e-05 | – | 0.000103 ± 1e-05 | 0.000231 ± 3e-05 | – | 3.39e-05 ± 1.2e-05 | 5.13e-05 ± 1e-05
17 | A15G U65G | 0.0045 ± 0.0017 | 4200 ± 2000 | 0.00285 ± 0.0006 | 0.00279 ± 0.00062 | 4.05e-05 ± 1e-05 | 0.000133 ± 3.7e-05 | 0.000664 ± 0.00013
18 | U30A A33C | 6.48e-05 ± 3e-06 | 4930 ± 560 | – | 4.35e-05 ± 1.2e-05 | – | – | –

Row | Variant | kcat (glucosamine-6-phosphate [1]) [s⁻¹] | KM (glucosamine-6-phosphate [2]) [µM] | self-cleavage kobs at 2500 uM GlcN6P (glucosamine-6-phosphate [3]) [s⁻¹] | self-cleavage kobs at 10000 uM GlcN6P (glucosamine-6-phosphate [4]) [s⁻¹] | self-cleavage kobs at 40 uM GlcN6P (glucosamine-6-phosphate [5]) [s⁻¹] | self-cleavage kobs at 160 uM GlcN6P (glucosamine-6-phosphate [6]) [s⁻¹] | self-cleavage kobs at 640 uM GlcN6P (glucosamine-6-phosphate [7]) [s⁻¹]
19 | U30A C67G | 0.000166 ± 1.4e-05 | 1650 ± 330 | 9.16e-05 ± 8.4e-06 | 0.00015 ± 1.3e-05 | – | – | 5.03e-05 ± 5.9e-06
20 | A14U G29C | 1.25e-05 ± 3.3e-06 | – | – | – | – | – | –
21 | G29U G37C | 1.83e-05 ± 2.2e-06 | – | – | – | – | – | –
22 | A39U C67G | 0.00521 ± 0.0013 | 1290 ± 420 | 0.00196 ± 0.00069 | 0.00516 ± 0.00068 | 0.000162 ± 1.8e-05 | 0.000514 ± 7.5e-05 | 0.00221 ± 0.00032
23 | U47A U65G U69C | 0.00209 ± 0.00057 | 2700 ± 1100 | 0.00114 ± 0.00024 | 0.00154 ± 0.0005 | – | 0.000128 ± 3.1e-05 | –
24 | A39U G44C | 0.000268 ± 4.5e-05 | 1920 ± 770 | 0.0002 ± 3.9e-05 | 0.000212 ± 3.2e-05 | – | – | 6.01e-05 ± 1.7e-05
25 | A39U G44A | 0.00136 ± 0.00031 | 572 ± 210 | 0.001 ± 0.00017 | 0.00144 ± 0.00021 | 0.000115 ± 1.3e-05 | 0.00021 ± 3.9e-05 | 0.00078 ± 9.9e-05
26 | C8G U57C | < 1e-05 | – | < 1e-05 | < 1e-05 | < 1e-05 | – | < 1e-05
27 | U45C C71U | 0.00401 ± 0.00038 | 2470 ± 340 | 0.00167 ± 0.00031 | 0.00338 ± 0.00033 | 6.69e-05 ± 7.5e-06 | 0.000236 ± 5.8e-05 | 0.000828 ± 0.00012
28 | A36U C67U | < 1e-05 | – | – | – | – | – | –
29 | A33U U55C C61A | 1.69e-05 ± 5.1e-06 | – | – | – | – | – | –
30 | U57G U69C | 1.77e-05 ± 7.2e-06 | – | – | – | – | – | –
31 | A6U G35U G38C A53U A64G | < 1e-05 | – | – | – | – | < 1e-05 | –
32 | A64G G66C | 0.00291 ± 0.001 | – | 0.00103 ± 0.00022 | 0.0027 ± 0.00051 | 4.68e-05 ± 1.7e-05 | – | 0.00057 ± 0.00011
33 | G44A U46G | 0.000265 ± 5.2e-05 | – | 0.000213 ± 4.4e-05 | 0.000221 ± 4.7e-05 | – | – | 0.000114 ± 2.6e-05
34 | G29U C50A | < 1e-05 | – | – | – | < 1e-05 | – | –
35 | A39G G66C | 0.00327 ± 0.0016 | – | 0.00169 ± 0.00033 | – | 7.7e-05 ± 2.6e-05 | 0.000141 ± 3.4e-05 | 0.000484 ± 9.6e-05
36 | A15G A64C | 0.000162 ± 9.6e-06 | 2040 ± 230 | 9.56e-05 ± 1.6e-05 | 0.00013 ± 2.2e-05 | – | – | 3.75e-05 ± 6.6e-06
